Values quoted from earlier work, collected in article PMC6484326.

Molecular target: GPIIb-IIIa (Homo sapiens) (UniProt P08514)

In the case of fibrinogen (from UniProt P02671), the Kd is given as 0.1 µM.
